Assay [1] in a line: Whole cell CADC assay in recombinant E. coli BL21(DE3). The format is cell-based. Conditions: whole cells in pH7 PBS, 1 g/L trans-cinnamic acid, 12 h. How it is done: (§1) Seed cultures consisting of 5 ml of LB broth containing 100 mg/L ampicillin were prepared of E. coli BL21(DE3) strains that were individually transformed with each of pTpad1-fdc1, pTpad1Sc, pTfdc1Sc, pTpdcLp, and pTpadCBs. These cultures were grown for 12 hours at 30° C. while agitating at 250 rpm. 1 mL of each culture was then used to inoculate 3×250 mL cultures flasks containing 50 mL of LB supplemented with 100 mg/L ampicillin. The culture was then grown at 30° C. while agitating at 250 rpm until it reached an OD600 of 0.6, at which point the cultures were induced by the addition of IPTG to a final concentration of 0.2 mM. Cultures were then grown for an additional 6 h. Cells were then collected by centrifuging in 50 ml Falcon tubes for 5 min at 1400×g and washed once with pH7 PBS (phosphate buffered saline) buffer. The entire cell pellet was resuspended in 10 ml pH7 PBS buffer and the appropriate substrate (trans-cinnamic acid or p-coumaric acid) added at a final concentration of 1 g/L. Enzyme activity was monitored by taking 1 mL samples from the culture at both the time of initiation as well as after 12 h of culture. All samples were then analyzed by HPLC using the methods described herein.

Assay [2] is described as follows: Whole cell PADC assay in recombinant E. coli BL21(DE3). The format is cell-based. Particulars: whole cells in pH7 PBS, 1 g/L p-coumaric acid, 12 h. How it is done: as §1

The text below walks through data of patent US9150884B2, “Microbial conversion of glucose to styrene and its derivatives” (Arizona Board of Regents, a Body Corporate of the State of …, priority 2011, dated 2015).

B1: FDC1: ferulic acid decarboxylase encoded by FDC1 of S. cerevisiae, expressed in recombinant E. coli from pTfdc1Sc (protein, listed as Saccharomyces cerevisiae)
chain: MRKLNPALEFRDFIQVLKDEDDLIEITEEIDPNLEVGAIMRKAYESHLPAPLFKNLKGASKDLFSILGCPAGLRSKEKGDHGRIAHHLGLDPKTTIKEIIDYLLECKEKEPLPPITVPVSSAPCKTHILSEEKIHLQSLPTPYLHVSDGGKYLQTYGMWILQTPDKKWTNWSIARGMVVDDKHITGLVIKPQHIRQIADSWAAIGKANEIPFALCFGVPPAAILVSSMPIPEGVSESDYVGAILGESVPVVKCETNDLMVPATSEMVFEGTLSLTDTHLEGPFGEMHGYVFKSQGHPCPLYTVKAMSYRDNAILPVSNPGLCTDETHTLIGSLVATEAKELAIESGLPILDAFMPYEAQALWLILKVDLKGLQALKTTPEEFCKKVGDIYFRTKVGFIVHEIILVADDIDIFNFKEVIWAYVTRHTPVADQMAFDDVTSFPLAPFVSQSSRSKTMKGGKCVTNCIFRQQYERSFDYITCNFEKGYPKGLVDKVNENWKRYGYK
Turning to B1, in assay [1], the “CADC activity (trans-cinnamic acid to styrene)” value is “activities on both p-coumaric and trans-cinnamic acid”. For the same molecule, the “activity on p-coumaric acid (to p-hydroxystyrene)” value in assay [2] is “activities on both p-coumaric and trans-cinnamic acid”.
